From PMC12141489 (Scientific Reports, 2025)
Where no end group is shown, it is not given here. The star is where a group is joined. Biotin = O=C1N[C@H]2[C@H](CS[C@H]2CCCCC(=O)*)N1

How the values were obtained:
[1] = biological target: myc-tagged human TRPM4 on HEK 293 cells (Homo sapiens, UniProt Q8TD43); assay: immunostaining of cells or tissue
[2] = biological target: Ab2 (humanized antibody) (human); assay: SPR
[3] = biological target: Ab4 (humanized antibody) (human); assay: SPR

myc-tagged human TRPM4 on HEK 293 cells, sequence (Q8TD43 whole entry): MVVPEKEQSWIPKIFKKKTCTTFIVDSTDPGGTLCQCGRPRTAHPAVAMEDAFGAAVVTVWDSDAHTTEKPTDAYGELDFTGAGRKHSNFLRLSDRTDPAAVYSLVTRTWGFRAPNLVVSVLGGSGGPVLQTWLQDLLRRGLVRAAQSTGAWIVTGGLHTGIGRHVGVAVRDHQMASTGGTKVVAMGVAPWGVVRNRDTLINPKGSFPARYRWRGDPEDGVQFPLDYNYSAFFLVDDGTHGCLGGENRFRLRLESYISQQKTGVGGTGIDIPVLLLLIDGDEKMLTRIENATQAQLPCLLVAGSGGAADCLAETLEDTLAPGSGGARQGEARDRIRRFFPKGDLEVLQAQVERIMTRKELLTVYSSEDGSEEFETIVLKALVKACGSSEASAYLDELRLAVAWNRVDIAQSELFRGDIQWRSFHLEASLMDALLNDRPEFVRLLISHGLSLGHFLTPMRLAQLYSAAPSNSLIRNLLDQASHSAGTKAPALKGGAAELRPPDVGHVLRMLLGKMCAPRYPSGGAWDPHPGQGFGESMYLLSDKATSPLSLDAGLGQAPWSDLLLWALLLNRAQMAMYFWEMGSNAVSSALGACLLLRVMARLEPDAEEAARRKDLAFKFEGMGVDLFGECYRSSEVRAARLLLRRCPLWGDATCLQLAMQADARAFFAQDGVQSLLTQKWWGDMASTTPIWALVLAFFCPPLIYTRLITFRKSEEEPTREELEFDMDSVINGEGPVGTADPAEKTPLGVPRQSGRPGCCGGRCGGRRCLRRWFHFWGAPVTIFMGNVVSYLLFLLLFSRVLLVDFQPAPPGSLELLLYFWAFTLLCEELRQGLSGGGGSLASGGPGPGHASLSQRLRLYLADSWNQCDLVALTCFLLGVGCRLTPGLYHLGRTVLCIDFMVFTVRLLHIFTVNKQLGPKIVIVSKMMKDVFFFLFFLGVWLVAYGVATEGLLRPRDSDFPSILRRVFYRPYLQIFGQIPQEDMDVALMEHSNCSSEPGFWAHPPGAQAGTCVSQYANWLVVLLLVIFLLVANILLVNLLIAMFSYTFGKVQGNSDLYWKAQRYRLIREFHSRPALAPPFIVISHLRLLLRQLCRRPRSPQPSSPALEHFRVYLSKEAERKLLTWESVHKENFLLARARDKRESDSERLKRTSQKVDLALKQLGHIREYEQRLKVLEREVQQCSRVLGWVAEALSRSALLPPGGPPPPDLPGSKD

Row | koff [2] [s⁻¹] | Kd [3] [nM] | Binder | binding result [1]
1 |  |  | Ab1 (chimeric antibody) (antibody, V domains shown) VH: QVQLQESGPGLVKPSQSLSLTCTVTGYSITSDYAWNWIRQFPGNKLQWMGYLSYSGVTSYNPSLKGRISITRDTSKNQFFLQLSSVTPEDTATYYCARKGTYYRYEGSYWYFDVWGAGTTVTVSS VL: DIQMNQSPSSLSASLGDTITITCHANQNIDVWLSWYQQKPGNVPKLLIYKTSNLHTGVPSRFSGSGSGTDFTLTISSLQPEDIATYYCQQGQSYPLTFGGGTKLEIK | binds
2 | 0.00166 | 7 | RDSDSNCSSEPGFWAHPPGAQK(Biotin) [Peptide-biotin (…{Lys(biotin)})] | 
